# Test results reported in paper PMC9233695, “Structural mechanism of protein recognition by the FW domain of autophagy receptor Nbr1” (Nature Communications, 2022).
# B1: CtAms1 in the CtAms1-CtNbr1 FW-MBP fusion protein (natural protein, Chaetomium thermophilum, UniProt G0SGP6 1-1079, looked up)
# chain: MGGETFDVKGPRPNDYPLRAPKPVGQLISHIYKDRIAQFYNGGQYEHQNLRAMMKEDSVSGEPHVQLWVWHAPGQTRPSFEEAVSNQFVKTNVGEWFGPSWTTHWFRVVLTVPEHLQNKRLLEFHWDSNSEGLVWSEDGKPLQGLTGGGERVEWILPDSFRDGKEHTIYIEMACNRMFGNAPGGDSIQPPDPNKYFRLDKAEIVAIDPDARQLWIDIWILQDAAREFPGDSWESHKALQVCNEIIEAFELGNRESLKKCRKIAEQYLGPNVDSPNVYNSGKEPLVYAIGHCHIDSCWLWPFAETKRKVVRSWSSQCDLMDRYPELNFVCSQAQQYKWLKQLYPYAFERVKKKVAEGRFHPIGGSWVEHDTNMPSGESLVRQFLYGQRFYESNFGKRCKTFWLPDTFGYSAQLPQLCRLAGMTRFLTQKLSWNNINRFPHTTFNWVALDGSQVICHMPPSETYTAEAHFGDVKRSMSQHKSLDQDNTSLLVFGKGDGGGGPTWVQIEKLRRCRGISDTVGLLPRVHMGSSVDDFFDRLERKADTFVTWYGELYFELHRGTYTTQAKNKKNNRRAEAKLRDLELLATIASVQDKSYKYPKEEFDAMWENVLLCQFHDCLPGSSIEMAYRESDQMYADVFSTAEKIMKGVSQVLGLEPALNHMSTTNTVALNTLPWPRRELVKISEKEAAVAHGTGPFLKLQKLETTKPLVTLRQVTKGAFVLENSQLRVHVEKGVITSLYDKQANREVIPKGQKANQYVIFDDKPLYWQAWDVEVYHLDTRKELPSGETEVHENTPHRVSVVTRTKVSDKSHIQTIIALNGAVEGEQSWVEVQSKVDWHETMKFLKVEFPVDVRNTEASYETAFGIVRRPTHYNTSWDMAKFEVCAHRWADLSEYGYGVSILNDSKYGFATAGQTMRLSLLRSPKAPDAHADMGTHHIRWAILPHQGSLSHVTIRKAFEFNNPTKLYSSPDAAALVAAPPPVWLTPDSSPAIVLDTVKRGEDDEDVSRGELPARKGQSVILRMYDSLGGLARGTVVTTWPLKKVCKVNLLEDDLEVVPWENGRFTVELRPFEVASYRLVLA
# notes: full-length Ams1 of Chaetomium thermophilum; the first methionine is processed (density map); model holds residues 2-1079; also called CtAms1_1; CtAms1_3; source: S. pombe (Pnmt1 promoter), fusion protein purified (GFP-Trap beads, released with 3C protease)
# B2: CtAms1: Chaetomium thermophilum α-mannosidase Ams1 (CTHT_0067100) (protein)
# chain: B1 chain
# Key:
# [1] = molecular target: GST-CtNbr1(635–775) (Chaetomium thermophilum); assay: SPR; Biacore T200, 25 °C; GST-FW domain captured by anti-GST antibody on a CM5 chip to about 700 RU; synthetic peptide flowed, 100 to 3.13 μM; 10 mM HEPES pH 7.4, 150 mM NaCl, 0.05% Tween 20; steady-state model
# [2] = molecular target: GST-hNBR1(358-498) (human) (UniProt Q14596); assay: as above
# [3] = molecular target: GST-CtNbr1(635–775) (Chaetomium thermophilum); assay: SPR; Biacore T200, 25 °C; GST-FW domain captured by anti-GST antibody on a CM5 chip to about 200 RU; CtAms1 protein flowed, 50 to 1.56 nM; 10 mM HEPES pH 7.4, 150 mM NaCl, 0.05% Tween 20; 1:1 binding model
# [4] = molecular target: the molecule itself; assay: cryo-EM structure; CtAms1-CtNbr1 FW-MBP fusion protein, 2.2 Å, D2 symmetry
# CtNbr1-FW = assay: SPR analysis of CtNbr1-FW with CtAms1 protein; set-up: species or system Chaetomium thermophilum; details: Biacore T200, 25 °C, GST-CtNbr1(635–775) captured by anti-GST on CM5 chip, about 200 RU, 10 mM HEPES, pH 7.4, 150 mM NaCl, 0.05% Tween 20, CtAms1 protein 50 to 1.56 nM twofold dilutions, 1:1 binding model, performed once, read-out: dissociation constant (KD)
# Text: (§1) Fig. 4 Mutational analysis of interactions between CtAms1 and CtNbr1-FW. a–c Pil1 co-tethering assay. CtNbr1 FW domain and its mutants were fused to Pil1-mCherry and co-expressed with CtAms1-mECitrine or its mutants in S. pombe. Cells were imaged by fluorescence microscopy. Bar, 3 μm. The data shown are representative of two independent experiments with similar results. Source data are provided as a Source Data file. d SPR analysis of the CtNbr1-CtAms1 interaction. GST-tagged CtNbr1 FW domain or its mutants was bound to a CM5 sensor chip. CtAms1 or CtAms1-G2A (twofold serial dilutions from 50 nM to 1.56 nM) flowed through the chip surface. The experiments were performed once. e SPR analysis of the interactions of CtNbr1 and hNBR1 with CtAms1 N-terminal peptides. GST-tagged CtNbr1 FW domain or hNBR1 FW domain was bound to a CM5 sensor chip. Chemically synthesized CtAms1 N-terminal peptides (twofold serial dilutions from 100 μM to 3.13 μM) flowed through the chip surface. […]
# (§2) Wild-type and mutant forms of GST-CtNbr1(635–775) and wild-type GST-hNBR1(358-498) were purified from E. coli, and FLAG2-His6 (FFH)-tagged CtAms1 and CtAms1-G2A were purified from S. pombe. […] The dissociation constants (KD) were calculated by fitting the sensorgrams to a 1:1 binding model (for protein–protein interaction) or a steady-state model (for protein-peptide interaction) using Biacore T200 evaluation software.
# CtNbr1-FW-D654A = assay: SPR analysis of CtNbr1-FW-D654A with CtAms1 protein; format: binding, Chaetomium thermophilum; details: Biacore T200, 25 °C, GST-CtNbr1 FW D654A mutant captured on CM5 chip, about 200 RU, 10 mM HEPES, pH 7.4, 150 mM NaCl, 0.05% Tween 20, CtAms1 50 to 1.56 nM, performed once
# Text: as §1, §2
# CtNbr1-FW-W763A = assay: SPR analysis of CtNbr1-FW-W763A with CtAms1 protein; format: binding, Chaetomium thermophilum; details: Biacore T200, 25 °C, GST-CtNbr1 FW W763A mutant captured on CM5 chip, about 200 RU, 10 mM HEPES, pH 7.4, 150 mM NaCl, 0.05% Tween 20, CtAms1 50 to 1.56 nM, performed once
# Text: as §1, §2
# CtNbr1 = assay: Pil1 co-tethering assay, candidate cargo proteins with CtNbr1; format: cell-based, Chaetomium thermophilum; details: Pil1-mCherry-CtNbr1 bait, mECitrine prey, co-expressed in S. pombe, EMM medium, 30 °C; fluorescence microscopy; two independent experiments
# Text: To investigate whether this receptor-cargo relationship is conserved in C. thermophilum, we examined whether CtNbr1 interacts with the Ct homologs of NVT cargo proteins using an imaging-based Pil1 co-tethering assay. In this assay, CtNbr1 was fused to the C-terminus of the Pil1-mCherry fusion protein, which localizes to distinctive filamentary structures. A cargo protein of interest was fused to the N-terminus of fluorescent protein mECitrine. The two proteins were co-expressed in S. pombe and if they interact with each other, co-localization on filamentary structures would be observed. […] To map which domain is responsible for binding CtAms1, a series of CtNbr1 fragments were analyzed (Fig. 1b).
# Plasmids expressing proteins with mECitrine/mCherry/GFP tags under the control of Pnmt1 or P41nmt1 promoter were constructed using modified pDUAL vectors. […]
# (§3) Fission yeast cells were grown to mid-log phase in EMM medium at 30 °C. […] Images were obtained with a 100 × 1.4NA objective and analyzed with the SoftWoRx software.
# (§4) To examine a pair-wise protein-protein interaction, a bait protein was fused to Pil1-mCherry, and a prey protein was fused to mECitrine. Cells co-expressing both proteins were grown to mid-log phase in EMM medium at 30 °C for fluorescence microscopy. […]
# CtNbr1-FW-D654E = assay: Pil1 co-tethering assay, CtAms1 and mutants with CtNbr1 FW domain D654E; format: cell-based, Chaetomium thermophilum; details: CtNbr1-FW-D654E fused to Pil1-mCherry, CtAms1-mECitrine or mutants, in S. pombe, 30 °C; two independent experiments
# Text: as §1, §3, §4
# S. pombe cells = assay: Localization / vacuolar entry of CtAms1-mCherry in S. pombe; format: cell-based, Schizosaccharomyces pombe
# Text: Fig. 5 CtNbr1 mediates vacuolar targeting of CtAms1 via conventional autophagy machinery in S. pombe. a CtNbr1 interacts with SpAtg8 in Pil1 co-tethering assay. SpAtg8(1−115), which lacks the G116 residue required for lipidation, was fused to Pil1-mCherry and co-expressed with mECitrine-tagged CtNbr1 in S. pombe. Pil1-mCherry served as a negative control. Cells were observed by fluorescence microscopy. Bar, 3 μm. b CtNbr1 can enter the vacuole through autophagy in nitrogen-starved S. pombe cells. CtNbr1-mCherry was expressed in wild-type and atg5Δ cells. SpCpy1-Venus was used as a vacuole lumen marker. Cells were collected before (0 h) and 8 h after nitrogen starvation (-N) and examined by fluorescence microscopy. […] C-terminally mCherry-tagged CtAms1, CtAms1-G2A, and CtAms1-G3A were individually co-expressed with untagged CtNbr1 in wild-type S. pombe cells. CtAms1-mCherry alone expressed in wild-type cells served as a negative control. CtAms1-mCherry was also co-expressed with untagged CtNbr1 in atg5Δ cells. Cells were collected before (0 h) and 3 h after nitrogen starvation and were examined by fluorescence microscopy. Bar, 3 μm. The data shown are representative of two independent experiments with similar results. Source data are provided as a Source Data file.
# Plasmids expressing mECitrine- or mCherry-tagged CtNbr1 under the control of the P41nmt1 promoter and plasmids expressing mCherry-tagged CtAms1 under the control of the P41nmt1 promoter were constructed using modified stable integration vectors. Plasmids were linearized by NotI digestion and integrated at the ura4 or ade6 locus of the S. pombe genome.
# Fission yeast cells were grown to mid-log phase in EMM medium at 30 °C. Microscopy was performed using the DeltaVision PersonalDV system (Applied Precision) equipped with a mCherry/YFP filter set (Chroma 89006 set) and a Photometrics Evolve 512 EMCCD camera. Images were obtained with a 100 × 1.4NA objective and analyzed with the SoftWoRx software.
# Chain of GST-CtNbr1(635–775) (Chaetomium thermophilum) (main, as listed by the source): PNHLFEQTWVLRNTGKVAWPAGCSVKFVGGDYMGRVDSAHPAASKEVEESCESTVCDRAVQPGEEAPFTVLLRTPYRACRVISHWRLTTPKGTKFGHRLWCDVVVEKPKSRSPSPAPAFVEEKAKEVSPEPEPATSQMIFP
# Chain of GST-hNBR1(358-498) (human) (Q14596 358-498): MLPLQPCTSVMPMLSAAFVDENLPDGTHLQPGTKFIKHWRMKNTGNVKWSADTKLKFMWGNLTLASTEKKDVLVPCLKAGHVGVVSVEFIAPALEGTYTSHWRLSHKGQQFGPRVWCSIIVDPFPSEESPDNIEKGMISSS
molecule,measurement,setting,value
CtAms1(2–15) peptide,Kd,[1],23 µM
same,Kd,[2],110 µM
FLAG2-His6 (FFH)-tagged CtAms1 (natural protein),Kd,[3],0.0034 µM
B1,stoichiometry N,[4],4
B2,Kd,CtNbr1-FW,0.0034 µM
same,dissociation constant (KD),CtNbr1-FW-D654A,No binding
same,dissociation constant (KD),CtNbr1-FW-W763A,No binding
same,interaction with CtNbr1,CtNbr1,interacted
same,binding to D654E mutant of CtNbr1 FW domain,CtNbr1-FW-D654E,bound
same,localization of CtAms1 expressed alone,"S. pombe cells; no CtNbr1, nutrient-rich and nitrogen starvation (3 h), wild-type S. pombe, CtAms1-mCherry",diffuse cytoplasmic distribution
same,CtNbr1-dependent vacuolar entry,"S. pombe cells; untagged CtNbr1 co-expressed, 3 h nitrogen starvation, atg5Δ S. pombe",abolished
same,vacuolar entry on co-expression of CtNbr1,"S. pombe cells; untagged CtNbr1 co-expressed, 3 h nitrogen starvation, wild-type S. pombe",vacuolar entry
same,cell periphery accumulation on co-expression of CtNbr1,"S. pombe cells; untagged CtNbr1 co-expressed, nutrient-rich conditions (0 h), wild-type S. pombe",cell periphery accumulation
